Key:
Format in all cases: cell-based, mouse
[1] = system: ES cells; experiment: Primary neural sphere colony formation from ES cells in serum-free low-density culture, 7 days; conditions: for primary colony formation, factor alone: ES cells at relatively low cell densities, serum-free, 7 days in vitro
Description: For passaging ES cells, cultures were disaggregated with 0.05% trypsin dissolved in Tris-saline/EDTA for 5–10 minutes, mechanically dissociated, centrifuged and resuspended in culture medium.
Passaged ES cells were washed (2 times), centrifuged and resuspended in chemically defined serum-free media (Reynolds et al., 1992; Reynolds & Weiss, 1996) composed of a 1:1 mixture of Dulbecco's modified Eagle's medium (DMEM GIBCO) and F-12 nutrient (GIBCO) including 0.6% glucose (Sigma), 2 mM glutamine (GIBCO), 3 mM sodium bicarbonate (Sigma), and 5 mM HEPFS buffer (Sigma). A defined hormone and salt mixture (Sigma) that included insulin (25 (g/ml), transferrin (100 (g/ml), progestrone (20 nM), putrescine (60 (M), and selenium chloride (30 nM) was used instead of serum. ES cells were plated at various cell densities in 24-well culture plates (Nunclon) in the presence of either LIF (1000 U/ml), LIF+FGF2 (10 ng/ml; Upstate Biotech or Sigma) and 2 (g/ml heparin (Sigma), or in the absence of any exogenous growth factors. For short term (4–24 hours) neural differentiation, ES cells were plated in identical culture conditions in 24-well culture plates (Nunclon) that were precoated with poly-L-ornithine (15 μg/ml, Gibco).
Limiting dilution analysis was performed as previously described (Bellows and Aubin, 1989; Tropepe et al., 1999). ES cells were plated in 24-well plates containing LIF (1000 U/ml). Cell numbers were adjusted to give a starting concentration of 5000 cells/ml from which serial dilutions were made. Final cell dilutions ranged from 1000 cells per well to 1 cell per well in 0.5 ml aliquots. Cultures were left undisturbed for 7 days after which time the fraction of wells not containing sphere colonies for each cell plating density was calculated and those points were plotted against the number of cells plated per well. The number of cells required to form one sphere colony, which reflected the proportion of neural stem cells in the entire population, was then determined from the point at which the regression line crossed the 0.37 level (37%). That is […], where F0 is the fraction of wells without sphere colonies and x is the mean number of cells per well. Based on a Poisson distribution of cells, F0=0.37 corresponds to the dilution at which there is one neural stem cell per well. The linear relationship observed between the cell density and the number of sphere colonies generated (regression coefficient R^2=0.99) can be accounted for by the clonal proliferation of a single rare population of cells.
Neuro2a (a murine neuroblastoma cell line) cells were seeded at 1×10^6 cells per 100 mm petri dish and transiently transfected with 10 μg of plasmid DNA by means of LipofectAMINE (Gibco) according to the manufacturer's instructions. After 6 hours, the culture media was changed to 10 ml of DMEM+10% FBS (Gibco). Twenty-four hours after transfection, culture media was changed to […] of serum-free media. Seventy-two hours after transfection, cell supernatant was collected and centrifuged to remove cellular debris. Supernatant media was aliquoted and stored at −70° C. […] Thus data from the 20% (v/v) experiments were used for the analysis. The plasmids pCS-V2 (gift from Dr. R. Moon) Hoppler et al., 1996) and pCS-cer-I (a gift from Dr. E. De Robertis) (Belo et al., 1997) were used.

[2] = system: ES-derived neural sphere colony cells; experiment: Subcloning of single ES-derived sphere colonies (secondary colony formation, self-renewal); conditions: subcloned single primary colonies; factor alone
Description: Self-renewal of primary colony-formin) ES cells was assessed as previously described (Tropepe et al., 1999). Single sphere colonies were isolated, mechanically dissociated into a single cell suspension in 0.2 ml of serum-free media containing various combinations of LIF (1000 U/ml), […] (10 ng/ml), heparin (2 (g/ml), EGF (20 ng/ml; Upstate Biotech) or B27 supplement (1X) and cultured in 96-well (Nunclon) plates. Secondary sphere colonies were quantified after 7–10 days. A similar procedure was used for repeated passaging experiments. Cell viability after a 7-day culture period (sphere colony assay) or after 4–24 hours (short-term ES differentiation assay) was determined using trypan blue exclusion (1:2 dilution of 0.4% trypan blue; Gibco).

[3] = system: ES derived neural colonies; experiment: RT-PCR gene expression in ES-derived neural colonies; conditions: mCer-1 enriched media versus control media; data not shown
Description: Total RNA was isolated using the RNeasy extraction kit (Qiagen) and 1 μg of total RNA was used to synthesize cDNA with oligo-d(T)12-18 primers and MuMLV reverse transcriptase (Superscript II; Boehringer-Mannheim) at 42° C. for 1 hour. The PCR mixture (20 μl) consisted of 1 μl cDNA, 16 pmol 5 ″ primer, 16 pmol 3′ primer, specific for the gene in question 0.2 mM dNTP, 2 μl PCR reaction buffer and 0.8 U of Taq polymerase (Promega). cDNA was amplified in a thermal cycler (Perkin-Elmer) For all primer pairs denaturation for 30 sec at 94° C., annealing for 30 sec and extension at 72° C. was used. The sense and antisense primers, Mg^2 concentration, annealing temperature, extension time and number of PCR cycles were used for the following genes. Emx2: sense 5′-[…]-3′ (SEQ ID. No. 1), antisense 5′ […]-3′(SEQ. ID. No. 2), 1.65 mM Mg^2+, 56° C., 40 sec, 40 cycles. HoxB1: sense 5′-CCGGACCTTCGACTGGATG-3′(SEQ. ID. No. 3). antisense 5′-GGTCAGAGGCATCTCCAGC-3′(SEQ. ID. No. 4), 1.35 mM Mg^2+, 58° C., 40 sec, 40 cycles. Otx1: sense 5′-[…]-3′(SEQ. ID. No. 5). antisense 5′-[…]-3′(SEQ. ID. No. 6), 1.65 mM Mg^2+, 58° C., 40 sec, 40 cycles. Six3: sense 5′-[…]-3′(SEQ. ID. No. 7), antisense 5′-[…]-3′(SEQ. ID. No. 8), 1.35 mM Mg^2+, 56° C., 40 sec, 40 cycles. Brechyury: sense 5′-[…]-3′(SEQ. ID. No. 9), antisense 5′-[…]-3′(SEQ. ID. No. 10), 1.65 mM Mg^2+, 56° C., 1 min. 35 cycles. […]

B1: CNTT: another member of the cytokine family of signaling molecules to which LIF belongs (protein, UniProt P26441 1-200, looked up)
Ciliary neurotrophic factor: MAFTEHSPLTPHRRDLCSRSIWLARKIRSDLTALTESYVKHQGLNKNINLDSADGMPVASTDQWSELTEAERLQENLQAYRTFHVLLARLLEDQQVHFTPTEGDFHQAIHTLLLQVAAFAYQIEELMILLEYKIPRNEADGMPINVGDGGLFEKKLWGLKVLQELSQWTVRSIHDLRFISSHQTGIPARGSHYIANNKKM
primary colony formation, factor alone [1]: unable to substitute as a colony-promoting factor

B2: FGF2: fibroblast growth factor family growth factor, 10 ng/ml with heparin (protein)
chain: PALPEDGGAAFPPGHFKDPKRLYCKNGGFFLRIHPDGRVDGVREKSDPHVKLQLQAEERGVVSIKGVCANRYLAMKEDGRLLASKCVTEECFFFERLESNNYNTYRSRKYSSWYVALKRTGQYKLGSKTGPGQKAILFLPMSAKS
primary colony formation, factor alone [1]: no cell colonies were generated | primary colony formation, factor combined with LIF versus LIF alone ([1]; combined with LIF): non-significant trend toward facilitating LIF-dependent colony formation | secondary neural stem cell colony formation [2]: dependent upon the presence of exogenous FGF2

B3: mCer-1: mouse Cerberus-like protein in supernatant from transiently transfected Neuro2a cells (protein)
chain: DLCVDGCQSQGSLSFPLLERGRRDLHVANHEEAEDKPDLFVAVPHLMGTSLAGEGQRQRGKMLSRLGRFWKKPETEFYPPRDVESDHVSSGMQAVTQPADGRKVERSPLQEEAKRFWHRFMFRKGPAFQGVILPIKSHEVHWETCRTVPFNQTIAHEDCQKVVVQNNLCFGKCSSIRFPGEGADAHSFCSHCSPTKFTTVHLMLNCTSPTPVVKMVMQVEECQCMVKTERGEERLLLAGSQGSFIPGLPASKTNP
increase in the numbers of primary neural stem cell colonies ([1]; 20% (v/v) mCer-1 supernatant in 0.5 ml serum-free media+LIF, versus backbone vector supernatant): ~50% | Otx-1 expression in ES derived neural colonies [3]: express Otx-1

B4: Noggin: BMP protein antagonist; human recombinant Noggin protein provided by Regeneron Pharmaceuticals Inc. (protein)
chain: QHYLHIRPAPSDNLPLVDLIEHPDPIFDPKEKDLNETLLRSLLGGHYDPGFMATSPPEDRPGGGGGAAGGAEDLAELDQLLRQRPSGAMPSEIKGLEFSEGLAQGKKQRLSKKLRRKLQMWLWSQTFCPVLYAWNDLGSRFWPRYVKVGSCFSKRSCSVPEGMVCKPSKSVHLTVLRWRCQRRGGQRCGWIPIQYPIISECKCSC
increase in the number of sphere colonies generated ([1]; Noggin 100 μg/ml, primary ES cell cultures with LIF+FGF2, 7 days): 50% | further effect on number of sphere colonies with rising Noggin concentration ([1]; Noggin from 10 μg/ml to 100 μg/ml): no additional increase in the numbers of sphere colonies generated

B5: BMP4: Human recombinant BMP4 protein provided by Genetics Institute Inc. (protein)
chain: SPKHHPQRSRKKNKNCRRHSLYVDFSDVGWNDWIVAPPGYQAFYCHGDCPFPLADHLNSTNHAIVQTLVNSVNSSIPKACCVPTELSAISMLYLDEYDKVVLKNYQEMVVEGCGCR
further effect on number of sphere colonies at higher BMP4 concentration ([1]; 5-fold increase in BMP4 concentration, LIF and FGF2): did not further significantly attenuate the number of sphere colonies generated | decrease in the number of sphere colonies generated ([1]; BMP4 5 ng/ml, ES cell cultures containing LIF and FGF2, 20 cells/ul, 7 days): greater than 50%

— patent publication US7211434B2, “Primitive neural stem cells and method for differentiation of stem cells to neural cells” (priority 2000, dated 2007)
